Results reported in US20240092919A1 (Ablynx, published 2024).
Residue numbers refer to the chain shown, from its start. In names and notes the source's numbering stands.

B1: T017000627 (bispecific antibody)
chain: DVQLVESGGGVVQPGGSLRLSCVASWDVHKINFYGWYRQAPGKEREKVAHISIGDQTDYADSAKGRFTISRDESKNTVYLQMNSLRPEDTALYYCRALSKIWPYDYWGQGTLVTVSSGGGGSGGGGSGGGGSGGGGSGGGGSGGGGSGGGGSEVQLVESGGGLVQAGGSLRLSCAASGITSKINDMGWYRQTPGNYREWVASITATGTTNYRDSVKGRFTISRDNAKSTVYLQMNSLKPEDTTVYYCNTFPPISNFWGQGTLVTVSSA
B2: T017000642 (bispecific antibody)
chain: B1 chain with G35T
B3: T017000639 (bispecific antibody)
chain: B1 chain with G35T, K100R
B4: T017000636 (bispecific antibody)
chain: B1 chain with K30Q, K100R
B5: T017000630 (bispecific antibody)
chain: DVQLVESGGGLVQAGGSLRLSCAASGITSKINDMGWYRQTPGNYREWVASITATGTTNYRDSVKGRFTISRDNAKSTVYLQMNSLKPEDTTVYYCNTFPPISNFWGQGTLVTVSSGGGGSGGGGSGGGGSGGGGSGGGGSGGGGSGGGGSEVQLVESGGGVVQPGGSLRLSCVASWDVHKINFYGWYRQAPGKEREKVAHISIGDQTDYADSAKGRFTISRDESKNTVYLQMNSLRPEDTALYYCRALSKIWPYDYWGQGTLVTVSSA
notes: also called A0110056A10(E1D)-35GS-T0170056G05(L11V, G26W, L34Y, M77T, K83R, V89L, F91Y, F95L, R97K, Y99W)-A
B6: T017000640 (bispecific antibody)
chain: B5 chain with G185T, K250R
notes: also called A0110056A10(E1D)-35GS-T0170056G05(L11V, G26W, L34Y, G35T, M77T, K83R, V89L, F91Y, F95L, Y99W)-A
B7: T017000631 (bispecific antibody)
chain: B5 chain with W176Y
notes: also called A0110056A10(E1D)-35GS-T0170056G05(L11V, G26Y, L34Y, M77T, K83R, V89L, F91Y, F95L, R97K, Y99W)-A
B8: T017000643 (bispecific antibody)
chain: B5 chain with G185T
notes: also called A0110056A10(E1D)-35GS-T0170056G05(L11V, G26W, L34Y, G35T, M77T, K83R, V89L, F91Y, F95L, R97K, Y99W)-A
B9: T017000249 (VHH)
VHH: EVQLVESGGGVVQPGGSLRLSCVASGDVHKINFLGWYRQAPGKEREKVAHISIGDVTDYADSAKGRFTISRDESKNMVYLQMNSLRPEDTALYFCRAFSRIYPYDYWGQGTLVTVSS
B10: T017000258 (VHH)
VHH: B9 VHH with D55E, V56Q
B11: T017000254 (VHH)
VHH: B9 VHH with V56R
B12: T017000285 (VHH)
VHH: B9 VHH with V56Q, D105L
B13: T017000287 (VHH)
VHH: B9 VHH with V56Q, D105Q
B14: T017000281 (VHH)
VHH: B9 VHH with V56Q, F98M
B15: T017000302 (VHH)
VHH: B9 VHH with V56Q, D105T
B16: T017000283 (VHH)
VHH: B9 VHH with V56Q, R100S
B17: T017000294 (VHH)
VHH: B9 VHH with V56Q, Y106W
B18: T017000312 (VHH)
VHH: B9 VHH with V56Q, F98L
B19: T017000301 (VHH)
VHH: B9 VHH with V56Q, D105A
B20: T017000278 (VHH)
VHH: B9 VHH with V56Q, D105S
B21: T017000290 (VHH)
VHH: B9 VHH with V56Q, R100K
B22: T017000291 (VHH)
VHH: B9 VHH with V56Q, Y102W
B23: T017000358 (VHH)
VHH: B9 VHH with D27A, I31L, V56Q, F98M, Y102W
B24: T017000569 (VHH)
VHH: B9 VHH with I31L, V56Q, F98M, Y102W
B25: T017000602 (VHH)
VHH: B9 VHH with G26W, K30Q, V56Q, R100K, Y102W
B26: T017000390 (VHH)
VHH: B9 VHH with G26W, K30Q, V56Q, F98M, R100K, Y102W
B27: T017000468 (VHH)
VHH: B9 VHH with D27S, L34Y, V56Q, Y102W
B28: T017000383 (VHH)
VHH: B9 VHH with K30Q, V56Q, F98M, Y102W
B29: T017000686 (VHH, not shown: small tags and cut ends)
VHH: B9 VHH with D27S, L34Y, V56Q, M77T, F94Y, F98L, Y102W
B30: T017000682 (VHH, not shown: small tags and cut ends)
VHH: B9 VHH with D27A, L34Y, V56Q, M77T, F94Y, F98L, Y102W
B31: T017000638 (VHH, not shown: small tags and cut ends)
VHH: B9 VHH with G26W, L34Y, G35T, V56Q, M77T, F94Y, F98L, Y102W
B32: T017000690 (VHH, not shown: small tags and cut ends)
VHH: B9 VHH with G26W, D27E, L34Y, V56Q, M77T, F94Y, F98L, Y102W
B33: T017000141 (VHH, not shown: small tags and cut ends)
VHH: B9 VHH with V56Q
notes: also called T0170000141

Molecular target: T1, Human T cell receptor on human primary T cells (human, UniProt P01848 1-140; P01850 1-176)
T1 TCR alpha (looked up): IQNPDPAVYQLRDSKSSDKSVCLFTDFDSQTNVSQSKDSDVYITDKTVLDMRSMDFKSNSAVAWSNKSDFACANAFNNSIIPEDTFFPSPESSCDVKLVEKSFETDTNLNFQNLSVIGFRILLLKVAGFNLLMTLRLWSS
T1 TCR beta (looked up): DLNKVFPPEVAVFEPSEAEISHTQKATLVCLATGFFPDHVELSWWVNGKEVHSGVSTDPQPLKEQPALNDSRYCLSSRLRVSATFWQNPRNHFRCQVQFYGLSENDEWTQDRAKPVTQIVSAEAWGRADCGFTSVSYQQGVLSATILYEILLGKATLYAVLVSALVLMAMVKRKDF
Experiment: cell-based or functional assay
For % Lysis, T cell mediated MOLM-13 cell killing, cynomolgus primary T cells, E:T 10:1 in this document: test concentration or dose not given here.
For % Lysis, T cell mediated MOLM-13 cell killing, human primary T cells, E:T 10:1 in this document: test concentration or dose not given here.

Binder | % Lysis, T cell mediated MOLM-13 cell killing, human primary T cells, E:T 10:1 [%] | EC50 (M), T cell mediated MOLM-13 cell killing, human primary T cells, E:T 10:1 [M]
B1 | 36 | 2.4e-10
B2 | 32 | 3e-10
B3 | 42 | 3.6e-11
B4 | 36 | 6.6e-11
B5 | 0 | –
B6 | 37 | 5.7e-10
B7 | 0 | –
B8 | 0 | –

Each binder was assayed against Cynomolgus T cell receptor on cynomolgus primary T cells (cynomolgus monkey) (assay: cell-based or functional assay).

Binder | % Lysis, T cell mediated MOLM-13 cell killing, cynomolgus primary T cells, E:T 10:1 [%] | EC50 (M), T cell mediated MOLM-13 cell killing, cynomolgus primary T cells, E:T 10:1 [M]
B1 | 19 | 3.8e-11
B2 | 37 | 4e-11
B3 | 28 | 4.1e-11
B4 | 20 | 6.7e-11
B5 | – | 4.5e-10
B6 | 6 | –
B7 | 35 | 2e-10
B8 | 12 | 1.6e-10

Molecular target: T2, Cynomolgus TCR(AEA41865/AEA41866)-zipper protein (cynomolgus monkey)
T2 construct: also called cyTCR-zipper protein; cynoTCR zipper
T2 TCR alpha: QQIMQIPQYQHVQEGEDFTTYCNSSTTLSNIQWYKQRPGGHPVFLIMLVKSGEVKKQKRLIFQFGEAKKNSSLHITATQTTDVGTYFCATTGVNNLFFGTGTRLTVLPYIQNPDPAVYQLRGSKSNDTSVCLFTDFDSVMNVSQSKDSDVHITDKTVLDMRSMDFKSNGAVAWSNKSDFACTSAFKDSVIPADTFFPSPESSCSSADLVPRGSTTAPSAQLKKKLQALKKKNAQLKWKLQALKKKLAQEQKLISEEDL
T2 TCR beta: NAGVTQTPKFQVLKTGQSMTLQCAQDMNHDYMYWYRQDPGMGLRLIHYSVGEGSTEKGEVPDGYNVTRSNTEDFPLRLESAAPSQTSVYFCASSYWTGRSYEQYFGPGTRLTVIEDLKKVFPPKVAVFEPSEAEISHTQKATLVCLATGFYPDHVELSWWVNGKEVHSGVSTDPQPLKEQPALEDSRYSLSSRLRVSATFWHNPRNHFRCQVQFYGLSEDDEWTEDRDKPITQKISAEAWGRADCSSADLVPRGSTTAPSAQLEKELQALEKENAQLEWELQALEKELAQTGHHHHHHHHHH
Experiment: SPR ProteOn off-rate screen
Description: (§1) Unique ISVD clones, i.e. clones with a unique sequence, were subsequently selected and screened to determine their off-rate. To this purpose, the ISVD containing periplasmic extracts were screened on huTCR-zipper and cyTCR-zipper protein by SPR on a ProteOn XPR36 instrument. The zipper proteins were immobilized on a GLC sensor chip (between 4300 and 5100RU) via amine coupling chemistry, using EDC/sulfo-NHS for activation of the carboxyl groups on the chip surface (running buffer: HBS-EP+, pH7.4). Periplasmic extracts were injected at 1/10 dilution for 2 min (at a flow rate of 45 μL/min) and dissociation was followed for 900 s. A pulse of 100 s of 3 M MgCl2 at 45 μL/min was used for regeneration. […] Processed sensorgrams were fitted with the Langmuir model (1:1 interaction) using ProteOn Manager 3.1.0 (Version 3.1.0.6) software.

Binder | koff [s⁻¹]
B9 | 0.00939
B10 | 0.0107
B11 | 0.0118

Molecular target: T2, Cynomolgus …
Experiment: SPR ProteOn off-rate screen
Remark: another data set of the same source
Description: as §1

Binder | koff [s⁻¹]
B12 | 0.0216
B13 | 0.0121
B14 | 0.00555
B15 | 0.0148
B16 | 0.00559
B17 | 0.0151
B18 | 0.0087
B19 | 0.0178
B20 | 0.0162
B21 | 0.00171
B22 | 0.00672

Molecular target: T2, Cynomolgus …
Experiment: SPR ProteOn off-rate screen
Remark: another data set of the same source
Description: as §1

Binder | koff [s⁻¹]
B23 | 0.00115
B24 | 0.00308
B25 | 0.00055
B26 | 0.000221
B27 | 0.00141
B28 | 0.00216

Molecular target: T1, Human T cell receptor on human primary …
Experiment: flow cytometry, human primary T cells
Protocol: The ISVD variants were characterized for binding to CHO-K1 huTCR(2XN9)/huCD3 or to human and cynomolgus primary T cells. […] Next, cells were washed 3 times with FACS buffer and incubated with 1 μg/ml ANTI-FLAG® M2 Ab (Sigma, F1804) and washed again. […] Subsequently, cells were resuspended in FACS buffer supplemented with 5 nM TO-PRO®-3 Iodide to distinguish live from dead cells, which are removed during the gating procedure. Cells were analyzed using a FACS Array flow cytometer (BD Biosciences) and Flowing Software. First a P1 population which represented more than 80% of the total cell population was selected based on FSC-SSC distribution. In this gate, 10000 cells were counted during acquisition. From this population the TO-PRO®-3+cells (dead cells) were excluded and the mean fluorescence intensity (MFI) PE value was calculated.

Binder | EC50 [nM]
B29 | 55
B30 | 58
B31 | 66
B32 | 66

Molecular target: T3, Cynomolgus TCR(AEA41865/AEA41866)-zipper protein (cynomolgus monkey)
T3 construct: also called cyTCR-zipper protein; cynoTCR zipper
T3 TCR alpha: T2 TCR alpha
T3 TCR beta: T2 TCR beta
Experiment: SPR, ProteOn XPR36, 25 C, immobilised TCR-zipper
Description: HuTCR-zipper or cyTCR-zipper protein was immobilized on a GLC sensor chip (between 100-200 RU) via amine coupling chemistry, using EDC/NHS for activation of the carboxyl groups on the chip surface (running buffer: HBS-EP+, pH7.4). […] Processed sensorgrams were fitted with the Langmuir model (1:1 interaction) using ProteOn Manager 3.1.0 (Version 3.1.0.6) software.

Binder | Kd [nM]
B1 | 5.2
B2 | 5.5
B3 | 44
B4 | 29
B5 | 240
B6 | 15000
B7 | 290
B8 | 900

Molecular target: T2, Cynomolgus …
Experiment: ratio higher/lower kd on huTCR- and cyTCR-zipper (SPR)
Description: as §1

Binder | gap in off-rate human vs cyno [fold]
B33 | 7.5
B23 | 8
B24 | 9
B25 | 2
B26 | 3
B27 | 8
B28 | 5
